Where a chain is given by its changes, count along the chain named. Names may count otherwise.

B1: E76A IL-2 (ligand)
chain: APTSSSTSSSTAEAQQQQQQQQQQQQHLEQLLMDLQELLSRMENYRNLKLPRMLTFKFYLPKQATELKDLQCLEDALGPLRHVLDLTQSKSFQLEDAENFISNIRVTVVKLKGSDNTFECQFDDESATVVDFLRRWIAFCQSIISTSPQ
notes: also called E76 mutants
B2: E76R mouse IL-2 (ligand)
chain: B1 chain with A76R
notes: also called E76 mutants
B3: E76G IL-2 (ligand)
chain: B1 chain with A76G
notes: also called E76 mutants
B4: E76F mouse IL-2 (ligand)
chain: B1 chain with A76F
notes: also called E76 mutants
B5: mIL-2 QQ 6.2-8 (ligand)
chain: APTSSSTSSSTAEAQQQQQQQQHLEQLLMDLQELLSRMEDHRNLRLPRMLTFKFYLPKQATELEDLQCLEDELEPLRQVLDLTQSKSFQLEDAENFISNIRVTVVKLKGSDNTFECQFDDEPATVVDFLRRWIAFCQSIISTSPR
notes: Reversion mutant
B6: mIL-2 QQ 6.2-4 (ligand)
chain: B1 chain with N44D, Y45S, K49R, K68E, A76E, G78E, H82Q, S126P, D131G
B7: mIL-2 QQ 6.2-10 (ligand)
chain: B1 chain with N44D, Y45H, K49R, K62E, K68E, A76E, G78E, H82Q, S126P
notes: Reversion mutant
B8: mIL-2 QQ 6.2-13 (ligand)
chain: B1 chain with N44D, Y45H, K49R, K62E, A76E, G78E, H82Q, S126P
notes: Reversion mutant
B9: mIL-2 QQ 6.2-11 (ligand)
chain: APTSSSTSSSTAEAQQQQQQQQQHLEQLLMDLQELLSRMEDSRNLRLPRMLTFKFYLPEQATELKDLQCLEDELEPLRQVLDLTQSKSFQLEDAENFISNIRVTVVKLKGSDNTFECQFDDEPATVVDFLRRWIAFCQSIISTSPQ
notes: Reversion mutant
B10: D265AFc/IL-2 (Fc fusion)
chain 1: EPRVPITQNPCPPLKECPPCAAPDLLGGPSVFIFPPKIKDVLMISLSPMVTCVVVAVSEDDPDVQISWFVNNVEVHTAQTQTHREDYNSTLRVVSALPIQHQDWMSGKEFKCKVNNRALPSPIEKTISKPRGPVRAPQVYVLPPPAEEMTKKEFSLTCMITGFLPAEIAVDWTSNGRTEQNYKNTATVLDSDGSYFMYSKLRVQKSTWERGSLFACSVVHEGLHNHLTTKTISRSLGKGGGSAPTSSSTSSSTAEAQQQQQQQQQQQQHLEQLLMDLQELLSRMENYRNLKLPRMLTFKFYLPKQATELKDLQCLEDELGPLRHVLDLTQSKSFQLEDAENFISNIRVTVVKLKGSDNTFECQFDDESATVVDFLRRWIAFCQSIISTSPQHHHHHH
chain 2: EPRVPITQNPCPPLKECPPCAAPDLLGGPSVFIFPPKIKDVLMISLSPMVTCVVVAVSEDDPDVQISWFVNNVEVHTAQTQTHREDYNSTLRVVSALPIQHQDWMSGKEFKCKVNNRALPSPIEKTISKPRGPVRAPQVYVLPPPAEEMTKKEFSLTCMITGFLPAEIAVDWTSNGRTEQNYKNTATVLDSDGSYFMYSKLRVQKSTWERGSLFACSVVHEGLHNHLTTKTISRSLGKGGGSDYKDDDDK
notes: also called D265A Fc/wt mIL-2

The target in the first experiment is T1, soluble murine CD25 (murine, UniProt P01590 22-236, limits assumed).
T1 construct: also called soluble CD25; mouse CD25
T1 sequence (looked up): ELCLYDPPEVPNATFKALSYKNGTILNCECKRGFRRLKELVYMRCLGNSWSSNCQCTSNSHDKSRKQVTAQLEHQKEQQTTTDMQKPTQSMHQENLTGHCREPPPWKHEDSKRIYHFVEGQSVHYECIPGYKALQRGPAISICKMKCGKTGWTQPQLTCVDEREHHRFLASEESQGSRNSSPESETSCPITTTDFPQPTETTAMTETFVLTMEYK
The experiment is described as follows: yeast surface display, labeling with soluble CD25, flow cytometry. An excerpt: While all H82 and Q121 mutants retained CD25 binding, no CD25 binding was detected for E76 mutants (FIG. 4).
Regarding B1, the binding result is “no binding (tested: 50 nM soluble CD25)”. The same measure, in the same setting: the entry for B2 is “no binding (tested: 5 or 50 nM soluble CD25)”; for B3 it is “no binding (tested: 50 nM soluble CD25)”; for B4 it is “no binding (tested: 5 or 50 nM soluble CD25)”.

In a further experiment the target is T1, soluble murine CD25. The experiment is described as follows: yeast surface display, titration with soluble murine CD25.
Turning to B5, the binding result is “binds”. Same read-out and setting: for B6 the value was “binds”; for B7, “binds”; for B8, “binds”. As to B9, the binding result is “binds”.

Another experiment addresses T1, soluble murine CD25. The experiment is described as follows: method not stated (legend of the schematic of Fc/IL-2).
On to B10, for which the Kd is around 50 nM.

Source of the values: US20150017120A1 (MIT, published 2015).
